Reference: patent US12037395 (IMMVIRA, dated 2024)
Where a chain is given by its changes, count along the chain named. Blank lines part the entries; values can stand above or below the binder they belong to.

Key:
[1] = molecular target: T1, recombinant human PD-1-his (Sino biological, #10377-H08H) (human, UniProt Q15116 25-167); experiment: SPR (Biacore) as in Example 2
T1 construct: Bought protein; also called Human PD-1-his protein; not shown: his tag

[2] = molecular target: T2, human PD-1 on PD-1 Effector Cell Line (Genscript, GS-J2/PD-1) (human, UniProt Q15116 25-288); experiment: cell-based or functional assay
[3] = molecular target: T3, biotin-labeled human PD-1 Fc protein (human, biotin-labeled (sites not given)); experiment: binding capture ELISA, biotin PD-1-Fc
T3 construct: also called PD-1-Fc-biotin

[4] = molecular target: T3, biotin-labeled human PD-1 Fc protein; experiment: benchmark blocking ELISA (coated Nivolumab as competitor)
Procedure: (§1) The next day, plates were washed with wash buffer, and blocked with 5% non-fatty milk in PBST for 2 hours at 37° C. […] Plates were finally washed using wash buffer. TMB was added and the reaction was stopped using 1M H_2SO_4, and the absorbance was read at 450 nm. Data were analyzed using Graphpad Prism software and $IC50$ values were reported.

[5] = molecular target: T1, recombinant human PD-1-his (Sino …); experiment: SPR (Biacore)
[6] = molecular target: T4, cynomolgus monkey PD-1-his protein (Acro biosystems, #PD-1-C5223) (cynomolgus monkey, UniProt B0LAJ3 25-170); experiment: SPR (Biacore)
T4 construct: Bought protein; also called Cynomolgus PD-1; Cynomolgus PD1

[7] = molecular target: T3, biotin-labeled human PD-1 Fc protein; experiment: PD1/PDL1 ligand blocking ELISA (coated PD-L1-Fc)
[8] = molecular target: T3, biotin-labeled human PD-1 Fc protein; experiment: binding capture ELISA (goat anti-human IgG Fab capture), biotin PD-1-Fc
[9] = molecular target: T3, biotin-labeled human PD-1 Fc protein; experiment: benchmark blocking ELISA (coated Nivolumab, self-competition)
[10] = molecular target: T3, biotin-labeled human PD-1 Fc protein; experiment: capture ELISA: antibody captured by anti-IgG Fc, biotin PD-1-Fc 60 nM
[11] = molecular target: T3, biotin-labeled human PD-1 Fc protein; experiment: capture binding ELISA, biotin PD-1-Fc
[12] = molecular target: T3, biotin-labeled human PD-1 Fc protein; experiment: competition ELISA: blocks biotin PD-1-Fc binding to coated Nivolumab (self-competition)
[13] = molecular target: T3, biotin-labeled human PD-1 Fc protein; experiment: PD1/PDL1 ligand blocking ELISA (coated PD-L1-Fc); remark: listed apart in the source
Procedure: (§2) The next day, plates were washed with wash buffer (PBS+0.05% Tween-20, PBST), and blocked with 5% non-fatty milk in PBST for 2 hours at 37° C. Plates were then washed again using wash buffer.
(§3) After incubation at 37° C. for 40 minutes, plates were washed for 4 times using wash buffer. […] Plates were washed again using wash buffer. Finally, TMB was added and the reaction was stopped using 1M H_2SO_4, and the absorbance was read at 450 nm. Data were analyzed using Graphpad Prism software and $IC50$ values were reported.

[14] = molecular target: T3, biotin-labeled human PD-1 Fc protein; experiment: benchmark blocking ELISA (coated Nivolumab, self-competition); remark: listed apart in the source
[15] = molecular target: T2, human PD-1 on PD-1 Effector Cell Line …; experiment: cell-based or functional assay; remark: listed apart in the source
[16] = molecular target: T3, biotin-labeled human PD-1 Fc protein; experiment: competition ELISA: blocks biotin PD-1-Fc binding to coated PD-L1-Fc
Procedure: as §2, §3

[17] = molecular target: T3, biotin-labeled human PD-1 Fc protein; experiment: competition ELISA: blocks biotin PD-1-Fc binding to coated Nivolumab (competitor); partial blocking
Procedure: as §1

[18] = molecular target: T1, recombinant human PD-1-his (Sino …); experiment: SPR (Biacore T200), antibody captured, antigen flowed
Source text: (§4) Briefly, goat […] (GE healthcare, Cat #BR100839, Human Antibody Capture Kit) was covalently linked to a CM5 chip (carboxy methyl dextran coated chip) via primary amines, using a standard amine coupling kit (GE healthcare, Pittsburgh, PA, USA) provided by Biacore. Unreacted moieties on the biosensor surface were blocked with ethanolamine. […] Then, recombinant human PD-1-his (Sino biological, #10377-H08H) or cynomolgus monkey PD-1-his protein (Acro biosystems, #PD-1-C5223) in HBS EP buffer (provided by Biacore) was flowed onto the chip at a flow rate of 30 μL/min. The antigen-antibody association kinetics was followed for 2 minutes and the dissociation kinetics was followed for 10 minutes. The association and dissociation curves were fit to a 1:1 *Langmuir* binding model using BIA evaluation software.

[19] = molecular target: T4, cynomolgus monkey PD-1-his protein …; experiment: as above
Source text: as §4

Kd [1]: 3.37 nM
B1: humanized anti-PD-1 antibody huC1E1-V5 (antibody, human IgG1, kappa, V domains shown)
VH: EVQLVESGGGVVQPGRSLRLSCAASGFTFSSYLMSWVRQAPGKGLEWVATISGGGGDTYFPDSVKGRFTISRDNSKNTLYLQMNSLRAEDTAVYYCVRFGGAGYYWYFDVWGAGTLVTVSS
VL: EIVLTQSPATLSLSPGERATLSCRASKSVDDSGISFMHWFQQKPGQPPRLLIYAASNQGSGIPARFSGSGSGTDFTLTISSLEPEDFAVYFCHQTKEVPWTFGQGTKVEIKR
notes: Human IgG1/kappa, expressed in 293F cells

Kd [1]: 3.05 nM
B2: humanized anti-PD-1 antibody huC1E1-V6 (antibody, human IgG1, kappa, V domains shown)
VH: B1 VH
VL: B1 VL with I62V, F91Y
notes: as for B1

Cell-based reporter assay (EC50, nM) [2]: 11.3 nM | EC50 [3]: 0.34 nM | IC50 [4]: 0.35 nM | Kd [1]: 0.968 nM | Kd [5]: 0.968 nM | Kd [6]: 0.892 nM | IC50 [7]: 0.88 nM | EC50 [8]: 0.44 nM
B3: humanized anti-PD-1 antibody huC1E1-V10 (antibody, human IgG1, kappa)
heavy: not shown
light: EIVLTQSPATLSLSPGERATLSCRASKSVDDSGISFMHWYQQKPGQAPRLLIYAASNQGSGIPARFSGSGSGTDFTLTISSLEPEDFAVYYCHQTKEVPWTFGQGTKVEIKRTVAAPSVFIFPPSDEQLKSGTASVVCLLNNFYPREAKVQWKVDNALQSGNSQESVTEQDSKDSTYSLSSTLTLSKADYEKHKVYACEVTHQGLSSPVTKSFNRGEC
notes: as for B1

Kd [1]: 6.36 nM
B4: humanized anti-PD-1 antibody huC1E1-V7 (antibody, human IgG1, kappa)
heavy: not shown
light: B3 light
notes: as for B1

IC50 [9]: 0.38 nM | EC50 [10]: 0.21 nM | EC50 [11]: 0.37 nM | IC50 [12]: 3.79 nM | EC50 [3]: 0.37 nM | IC50 [13]: 0.41 nM | IC50 [7]: 0.41 nM | IC50 [14]: 0.38 nM
B5: Nivolumab (OPDIVO®) (antibody, V domains shown)
VH: QVQLVESGGGVVQPGRSLRLDCKASGITFSNSGMHWVRQAPGKGLEWVAVIWYDGSKRYYADSVKGRFTISRDNSKNTLFLQMNSLRAEDTAVYYCATNDDYWGQGTLVTVSS
VL: EIVLTQSPATLSLSPGERATLSCRASQSVSSYLAWYQQKPGQAPRLLIYDASNRATGIPARFSGSGSGTDFTLTISSLEPEDFAVYYCQQSSNWPRTFGQGTKVEIK

EC50 [10]: 0.18 nM | Reporter Activation (EC50, nM) human PD-1 cell (NFAT-luc)/human PD-L1 cell [15]: 17.9 nM | IC50 [16]: 0.32 nM | IC50 [17]: 14.4 nM | Kd [18]: 2.68 nM | koff [18]: 0.000436 s⁻¹ | kon [18]: 163000 M⁻¹ s⁻¹ | Kd [19]: 13 nM | koff [19]: 0.00183 s⁻¹ | kon [19]: 140000 M⁻¹ s⁻¹
B6: mouse anti-PD-1 monoclonal antibody 2G2 (antibody, mouse IgG1, kappa, V domains shown)
VH: EVQLVESGGDLVKPGGSLKLSCTASGFTFSYYGMSWVRQTPDKRLEWVATISSGSSFTYSPDSVKGRFTISRDNAKNTLYLQMNSLKSEDTAIYYCTRREGIYDASWDYSMDYWGQGTSVTVSS
VL: DVLMTQTPLSLPVSLGDQASISCRSSQSIIRSNGNTYLEWYLQKPGQSPKLLIYKVSNRFSGVPDRFSGSGSGTDFTLKISRVEADDLGLYYCFQGSHVPWTFGGGTKLEIKR
notes: Purified from hybridoma; Constant regions tied only generically to 'mouse antibodies'; also called Clone 2G2
